# Data taken from patent US20180371083A1.
# Assays:
# [1] = target: human TIGIT-His protein (extracellular domain of human TIGIT fused to His tag) (human) (UniProt Q495A1); test: SPR, Biacore T200; antibody captured on anti-mouse IgG, human TIGIT-His as analyte; 1:1 Langmuir fit
# [2] = target: human TIGIT expressed on cells (CHO-K1 transfectants; Jurkat over-expressing human TIGIT) (human) (UniProt Q495A1); test: cell-based or functional assay
# Sequence of human TIGIT expressed on cells (CHO-K1 transfectants; Jurkat over-expressing human TIGIT) (human) (Q495A1 25-244): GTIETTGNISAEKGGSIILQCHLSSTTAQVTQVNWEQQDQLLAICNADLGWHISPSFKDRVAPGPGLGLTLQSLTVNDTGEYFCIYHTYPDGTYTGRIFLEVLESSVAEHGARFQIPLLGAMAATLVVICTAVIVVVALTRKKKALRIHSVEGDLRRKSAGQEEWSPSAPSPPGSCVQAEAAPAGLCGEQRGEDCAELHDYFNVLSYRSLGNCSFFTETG
# Sequence of human TIGIT-His protein (extracellular domain of human TIGIT fused to His tag) (human) (Q495A1 25-141 limits assumed): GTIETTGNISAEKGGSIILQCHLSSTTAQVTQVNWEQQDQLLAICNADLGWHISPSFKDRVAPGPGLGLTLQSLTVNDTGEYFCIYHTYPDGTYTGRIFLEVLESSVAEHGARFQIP
substance,measurement,setting,value
"commercial anti-hTIGIT antibody, clone MBSA43 (eBioscience Cat#12-9500-42)",Kd,[1],0.0363 nM
same,"EC50, rescue of IL-2 in hTIGIT-Jurkat / THP-1 co-culture with CD155-Fc or CD112-Fc",[2],0.23 mg/L
